# Key:
# Assay in all cases: cell-based or functional assay
# [1] = target: HIV-1 strain Du422.1 envelope (gp120) (HIV-1)
# [2] = target: HIV-1 Env of strain CAP210.2.00.E8 (HIV-1)
# [3] = target: HIV-1 strain ZM109F.PB4 envelope (gp120) (HIV-1)
# [4] = target: HIV-1 Env of strain TROJO4551.58 (HIV-1)
# [5] = target: HIV-1 Env of strain Ce1176_A3 (HIV-1)
# [6] = target: HIV-1 strain T251-18 envelope (gp120) (HIV-1)
# [7] = target: HIV-1 strain CAP210.2.00.E8 envelope (gp120) (HIV-1)
# [8] = target: HIV-1 strain 89-F1_2_25 envelope (gp120) (HIV-1)
# [9] = target: HIV-1 Env of strain SC422661.8 (HIV-1)
# [10] = target: HIV-1 Env of strain ZM197M.PB7 (HIV-1)
# [11] = target: HIV-1 Env of strain Q461.e2 (HIV-1)
# [12] = target: HIV-1 Env of strain 231966.c02 (HIV-1)
# [13] = target: HIV-1 Env of strain 6811.v7.c18 (HIV-1)
# [14] = target: HIV-1 Env of strain ZM53M.PB12 (HIV-1)
# [15] = target: HIV-1 Env of strain CNE53 (HIV-1)
# [16] = target: HIV-1 Env of strain 6540.v4.cl (HIV-1)
# [17] = target: HIV-1 strain T278-50 envelope (gp120) (HIV-1)
# [18] = target: HIV-1 Env of strain ZM135M.PL10a (HIV-1)
# [19] = target: HIV-1 strain Ce0393_C3 envelope (gp120) (HIV-1)
# [20] = target: HIV-1 Env of strain CNE30 (HIV-1)
# [21] = target: HIV-1 strain 0330.v4.c3 envelope (gp120) (HIV-1)
# [22] = target: HIV-1 strain ZM233M.PB6 envelope (gp120) (HIV-1)
# [23] = target: HIV-1 Env of strain 6480.v4.c25 (HIV-1)
# [24] = target: HIV-1 strain Du172.17 envelope (gp120) (HIV-1)
# [25] = target: HIV-1 Env of strain C2101.c01 (HIV-1)
# [26] = target: HIV-1 strain 1056_10_TA11_1826 envelope (gp120) (HIV-1)
# [27] = target: HIV-1 Env of strain T278-50 (HIV-1)
# [28] = target: HIV-1 Env of strain R1166.c01 (HIV-1)
# [29] = target: HIV-1 Env of strain WEAU_d15_410_787 (HIV-1)
# [30] = target: HIV-1 strain Q842.d12 envelope (gp120) (HIV-1)
# [31] = target: HIV-1 strain Ce1176_A3 envelope (gp120) (HIV-1)
# [32] = target: HIV-1 strain Q23.17 envelope (gp120) (HIV-1)
# [33] = target: HIV-1 Env of strain 3103.v3.c10 (HIV-1)
# [34] = target: HIV-1 Env of strain T250-4 (HIV-1)
# [35] = target: HIV-1 Env of strain ZM249M.PL1 (HIV-1)
# [36] = target: HIV-1 Env of strain 3817.v2.c59 (HIV-1)
# [37] = target: HIV-1 strain 62357_14_D3_4589 envelope (gp120) (HIV-1)
# [38] = target: HIV-1 strain C2101.c01 envelope (gp120) (HIV-1)
# [39] = target: HIV-1 Env of strain C1080.c03 (HIV-1)
# [40] = target: HIV-1 Env of strain CNE17 (HIV-1)
# [41] = target: HIV-1 Env of strain C3347.c11 (HIV-1)
# [42] = target: HIV-1 strain ZM53M.PB12 envelope (gp120) (HIV-1)
# [43] = target: HIV-1 Env of strain ZM214M.PL15 (HIV-1)
# [44] = target: HIV-1 strain 6540.v4.c1 envelope (gp120) (HIV-1)
# [45] = target: HIV-1 strain T257-31 envelope (gp120) (HIV-1)
# [46] = target: HIV-1 strain 231965.c01 envelope (gp120) (HIV-1)
# [47] = target: HIV-1 strain ZM214M.PL15 envelope (gp120) (HIV-1)
# [48] = target: HIV-1 strain CNE17 envelope (gp120) (HIV-1)
# [49] = target: HIV-1 strain ZM249M.PL1 envelope (gp120) (HIV-1)
# [50] = target: HIV-1 strain R1166.c01 envelope (gp120) (HIV-1)
binder,measurement,setting,value
"NIH45-46^G54W IgG (antibody, name in Kabat numbering, V domains shown) VH: QVRLSQSGGQMKKPGESMRLSCRASGYEFLNCPINWIRLAPGRRPEWMGWLKPRWGAVNYARKFQGRVTMTRDVYSDTAFLELRSLTSDDTAVYFCTRGKYCTARDYYNWDFEHWGRGAPVTVSS VL: EIVLTQSPATLSLSPGETAIISCRTSQSGSLAWYQQRPGQAPRLVIYSGSTRAAGIPDRFSGSRWGADYNLSISNLESGDFGVYYCQQYEFFGQGTKVQVDI",neutralization IC80,[1],> 50 µg/mL
same,neutralization IC50,[2],> 50 µg/mL
same,neutralization IC80,[3],0.07 µg/mL
same,neutralization IC50,[4],0.01 µg/mL
same,neutralization IC50,[5],0.16 µg/mL
same,neutralization IC80,[6],0.92 µg/mL
same,neutralization IC80,[7],> 50 µg/mL
same,neutralization IC80,[8],> 50 µg/mL
same,neutralization IC50,[9],0.02 µg/mL
same,neutralization IC50,[10],0.04 µg/mL
same,neutralization IC50,[11],0.009 µg/mL
same,neutralization IC50,[12],0.02 µg/mL
same,neutralization IC50,[13],< 0.001 µg/mL
same,neutralization IC50,[14],0.04 µg/mL
same,neutralization IC50,[15],< 0.001 µg/mL
same,neutralization IC50,[16],> 50 µg/mL
same,neutralization IC80,[17],> 50 µg/mL
same,neutralization IC50,[18],0.04 µg/mL
same,neutralization IC80,[19],0.089 µg/mL
same,neutralization IC50,[20],0.052 µg/mL
same,neutralization IC80,[21],0.11 µg/mL
same,neutralization IC80,[22],0.11 µg/mL
same,neutralization IC50,[23],0.004 µg/mL
same,neutralization IC80,[24],42.9 µg/mL
same,neutralization IC50,[25],0.04 µg/mL
same,neutralization IC80,[26],0.16 µg/mL
same,neutralization IC50,[27],> 50 µg/mL
same,neutralization IC50,[28],0.13 µg/mL
same,neutralization IC50,[29],< 0.001 µg/mL
same,neutralization IC80,[30],0.025 µg/mL
same,neutralization IC80,[31],0.45 µg/mL
same,neutralization IC80,[32],0.03 µg/mL
same,neutralization IC50,[33],0.2 µg/mL
same,neutralization IC50,[34],1.33 µg/mL
same,neutralization IC50,[35],0.002 µg/mL
same,neutralization IC50,[36],> 50 µg/mL
same,neutralization IC80,[37],0.07 µg/mL
same,neutralization IC80,[38],0.17 µg/mL
same,neutralization IC50,[39],0.2 µg/mL
same,neutralization IC50,[40],0.036 µg/mL
same,neutralization IC50,[41],< 0.001 µg/mL
same,neutralization IC80,[42],0.16 µg/mL
same,neutralization IC50,[43],0.03 µg/mL
same,neutralization IC80,[44],> 50 µg/mL
same,neutralization IC80,[45],0.45 µg/mL
same,neutralization IC80,[46],0.035 µg/mL
same,neutralization IC80,[47],0.15 µg/mL
same,neutralization IC80,[48],0.127 µg/mL
same,neutralization IC80,[49],0.007 µg/mL
same,neutralization IC80,[50],0.51 µg/mL

# Reference: patent US20130209454A1
